Experimental data published in patent US7759459B2, “Fluorescent assays for protein kinases” (Albert Einstein College of Medicine of Yeshiva University, priority 2003, dated 2010).

Assays:
[1] = system: T1, N=C(N)NCCC[C@H](NC(=O)[C@H](CCCNC(=N)N)NC(=O)[C@H](CCCNC(=N)N)NC(=O)[C@H](CCCNC(=N)N)NC(=O)[C@H](Cc1ccccc1)NC(=O)[C@H](CO)Nc1ccc([N+](=O)[O-])c2nonc12)C(=O)N[C@@H](CCCCN)C(N)=O; assay: Fluorescent PKC assay (spectrofluorimetry); assay type: biochemical, human; conditions: other: PKCγ; Fluorescence; pH 7.4; 30.0 °C
T1 construct: purchased Panvera
Description: Fluorescent PKC assay-Fluorescence assays were performed in triplicate at 30° C. and initiated by addition of ATP to a 100 μL cuvette containing a 50 μL solution of PKC and peptide substrate 2. Final conditions: 62.5 mM HEPES pH 7.4, 3 mM MgCl2, 0.3 mM CaCl2, 0.1 mM EGTA, 1 mM DTT, 0.5 μg/mL phosphatidylserine, 0.1 μg/mL diacylglycerol, 1 mM ATP, and 13 nM PKC. After the addition of ATP, the solution was gently mixed and the time-dependent change in fluorescent intensity (excitation: 520 nm, emission: […]) continuously monitored with a Photon Technology QM-1 spectrofluorimeter.

[2] = system: T1, N=C(N)NCCC[C@H](NC(=O)[C@H](CCCNC(=N)N)NC(=O)[C@H](CCCNC(=N)N)NC(=O)[C@H](CCCNC(=N)N)NC(=O)[C@H](Cc1ccccc1)NC(=O)[C@H](CO)Nc1ccc([N+](=O)[O-])c2nonc12)C(=O)N[C@@H](CCCCN)C(N)=O; assay: Radioactive PKC assay ([γ-32P]ATP); assay type: biochemical, human; conditions: other: PKCγ, 30.0 °C
Description: Radioactive PKC Assay—Radioactive assays were performed in duplicate at 30° C. The final assay volume totaled 40 μl and contained 62.5 mM HEPES (pH 7.4), 0.75 mM CaCl2, 12.5 mM MgCl2, 1 mM dithiothreitol, 0.5 mM EGTA, 7.5 μg/mL phosphatidylserine, 1.6 μg/mL diacylglycerol, and 10 ng of PKC. […] Phosphorylation reactions were initiated by the addition of 10 μL of PKC from a stock solution (20 mM Tris-HCl at pH 7.5, 1 mM dithiothreitol, 1 mM EDTA, and 0.75 mg/mL bovine serum albumin) into 30 μL of assay buffer containing peptide substrate. Reactions were terminated after 5 min by spotting 25 μL aliquots onto phosphocellulose paper disks (2.1 cm in diameter). After 10 s, the disks were immersed in 10% glacial acetic acid and soaked with occasional stirring for at least 1 h. The acetic acid was decanted and the disks were collectively washed with four volumes of 0.5% H3PO4, 1 volume of water, followed by a final acetone rinse. The disks were air dried and then counted in a Beckman LS scintillation counter.

## PKCγ (Homo sapiens)
[1]
  Km: 30 ± 5 µM
  kcat: 3.17 ± 0.667 s⁻¹
  kcat/Km: 105000 ± 28300 M⁻¹ s⁻¹
[2]
  Km: 5.0 ± 1.0 µM
  kcat: 3.5 ± 0.333 s⁻¹
  kcat/Km: 700000 ± 150000 M⁻¹ s⁻¹
